# Results from PMC7729563, “Phospho-Mutant Activity Assays Provide Evidence for the Negative Regulation of Transcriptional Regulator PRE1 by Phosphorylation” (International Journal of Molecular Sciences, 2020).
# T1: GST-IBH1 (Arabidopsis thaliana, UniProt Q9SKX1 1-156)
# T1 construct: also called glutathione S-transferase (GST)-IBH1; source: bacteria, purified on glutathione beads; not shown: GST, N-terminal, kept
# T1 sequence (looked up): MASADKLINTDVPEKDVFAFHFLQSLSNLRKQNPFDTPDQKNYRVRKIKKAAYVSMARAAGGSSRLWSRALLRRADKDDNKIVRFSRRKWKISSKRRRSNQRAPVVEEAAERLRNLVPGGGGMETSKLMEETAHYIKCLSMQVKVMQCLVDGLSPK
# T2: GST-BIN2 (BR-… 2, GSK3-like kinase) (Arabidopsis thaliana, UniProt Q39011 1-380)
# T2 construct: GST-BIN2 is the only recombinant wild-type BIN2 described (methods 4.11); also called brassinosteroid-insensitive 2; source: E. coli, purified
# T2 sequence (looked up): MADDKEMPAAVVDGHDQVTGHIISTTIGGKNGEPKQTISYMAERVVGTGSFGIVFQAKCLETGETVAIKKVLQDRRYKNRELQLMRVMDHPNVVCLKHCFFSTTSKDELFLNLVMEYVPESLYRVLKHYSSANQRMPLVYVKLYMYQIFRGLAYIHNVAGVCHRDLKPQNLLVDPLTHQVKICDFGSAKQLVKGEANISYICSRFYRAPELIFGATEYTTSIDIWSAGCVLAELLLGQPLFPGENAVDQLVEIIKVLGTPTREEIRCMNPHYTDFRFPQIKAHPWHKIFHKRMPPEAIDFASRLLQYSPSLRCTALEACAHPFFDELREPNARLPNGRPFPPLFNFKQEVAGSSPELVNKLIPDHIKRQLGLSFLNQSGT
# What was measured:
# GST-IBH1 = target: T1, GST-IBH1; assay: pull-down; 1 μg GST-IBH1 on glutathione beads with 1 μg MBP fusion; 20 mM Tris-HCl pH 7.5, 100 mM NaCl, 1 mM EDTA; washes with 300 mM NaCl, 0.5% Triton X-100; anti-MBP immunoblot; conditions: both partners purified
# [1] = target: T2, GST-BIN2 (BR-… 2, GSK3-like kinase); assay: far-Western, overlay or dot blot; overlay assay in vitro (Figure S5A); format not told; conditions: both partners purified
binding result (GST-IBH1),binding result [1],Binder
binds,binds,"MBP-PRE1 (natural protein, Arabidopsis thaliana, UniProt Q9FLE9 1-92, looked up, MBP-PRE1 is the only recombinant PRE1 described; source: E. coli, purified on amylose resin beads; not shown: MBP, N-terminal, kept) MSNRRSRQSSSAPRISDNQMIDLVSKLRQILPEIGQRRRSDKASASKVLQETCNYIRNLNREVDNLSERLSQLLESVDEDSPEAAVIRSLLM"
binds,,"MBP-PRE1^S67A (natural protein, Arabidopsis thaliana, UniProt Q9FLE9 1-92, looked up, source: E. coli, purified on amylose resin beads; not shown: MBP, N-terminal, kept) MSNRRSRQSSSAPRISDNQMIDLVSKLRQILPEIGQRRRSDKASASKVLQETCNYIRNLNREVDNLAERLSQLLESVDEDSPEAAVIRSLLM"
